Laboratory results as given in patent US11612667B2, “Enhanced in vivo targeting of radiolabelled peptides with the means of enzyme inhibitors” (Advanced Accelerator Applications USA, Inc., priority 2011, dated 2023).
Non-standard residues stand in square brackets, D forms with d. Residues, ends and D or L forms follow the SMILES beside them. *: point of attachment. DOTA = O=C(O)CN1CCN(CC(=O)O)CCN(CC(=O)*)CCN(CC(=O)O)CC1; Nle = CCCC[C@H](N)C(=O)O; X1 = NCCNCC(CNCCN)C(=O)*; AEEA = NCCOCCOCC(=O)O; βAla = NCCC(=O)O; For = O=C*

Key:
[1] = set-up: species or system Swiss albino mice; conditions: mouse, in vivo, 5 min
Method: Whole blood was collected 5 min postinjection (pi), blood cells were removed and major proteins were precipitated and then the supernatant was analyzed by RP-HPLC coupled to a gamma detector.
Alternatively, the dual NEP and ACE inhibitor racecadotril (race; 2.5 mg) was ip injected 45-60 min prior to radioligand injection and the same procedure was followed as described above.
To test the in vivo stability, ^111In-DOTA-MG11 was injected in the tail vein of Swiss albino mice and 5 min afterwards blood was collected, blood cells were removed and major proteins were precipitated and then the supernatant was analyzed by RP-HPLC coupled to a gamma detector. As shown in the radiochromatogram of FIG. 3A, the major part of ^111In-DOTA-MG11 was consumed during this period (<5% intact peptide still detected), in agreement with previous reports. Further, ^111In-DOTA-MG11 was co-injected together with PA or injected 1 h after ip injection of race (2.5 mg) in more mice and the same protocol was followed as above. Amazingly, the percentage of ^111In-DOTA-MG11 found intact in the blood of the PA-treated mice was raised from <5% to 75% and in the race-pretreated mice to 73%.
For ex vivo blood analysis, [^99mTc]Demotensin 6 was injected in the tail vein of Swiss albino mice and blood collected 5 min thereafter was analyzed as previously described. The effect of PA on stability was studied by co-injection of PA along with [^99mTc]Demotensin 6. Furthermore, a PA dose study was performed with the PA injected dose ranging from 300 μg down to 0.03 μg and results are summarized in FIG. 4A.
Additional groups of radiopeptides with relevance for nuclear medicine applications have been studied for their in vivo stability. Radiopeptides were injected in the tail vein of healthy mice, either alone, or with a NEP inhibitor (PA—300 μg), or with a NEP (PA—300 μg) and an ACE (Lis—300 μg) inhibitor mixture; alternatively, another NEP inhibitor prodrug (race—2.5 mg) was ip injected in the animals ˜45 min prior to radioligand injection. Blood was collected 5 min afterwards, and analyzed by RP-HPLC after suitable preparation, as previously described.

[2] = test system: human prostate adenocarcinoma PC-3 xenografts (GRPR+); set-up: species or system SCID mice; conditions: mouse, in vivo; for uptake in PC-3 tumor: SCID, 4 h
Method: FIG. 6C: Biodistribution of [^99mTc]SAR-NC1 in SCID mice bearing human prostate adenocarcinoma PC-3 xenografts (GRPR^+) at 4 h pi.
In FIG. 6B and FIG. 7B, the biodistribution of [^99mTc]SAR-NC1 and [^99mTc]SAR-NC6 in SCID mice bearing human prostate adenocarcinoma PC-3 xenografts (GRPR^+) at 4 h respectively, after injection of the radioligand alone or with co-injection of PA (300 μg) are shown.
It is interesting to note that with co-injection of the blocker and PA tumor values were minimal (0.69±0.03% ID/g) showing that PA provoked a GRPR-mediated increase in tumor uptake.
The effect of PA-induced stabilization of [^99mTc]Demobesin 1 on tumor uptake is illustrated in FIG. 10B, showing the biodistribution at 4 h pi after injection of [^99mTc]Demobesin 1 in SCID mice bearing human PC-3 xenografts (GRPR^+) (control), or with PA (300 μg).

[3] = mouse; cited from earlier work
[4] = test system: WiDr tumors (hNTS1+); assay: Biodistribution / tumor uptake in SCID mice bearing WiDr tumors (hNTS1+); conditions: 4 h pi
Method: FIG. 4H: Biodistribution of [^99mTc]Demotensin 6 in SCID mice bearing WiDr tumors (hNTS1^+) at 4 h pi. Bars represent average uptake as mean % injected dose per gram (% ID/g) of at least 4 animals with standard deviation (control at 4 h 2nd bars); three additional groups of animals received either excess NT(1-13) and PA (100 μg blocker and 300 μg PA—first bars), or PA (300 μg PA—3rd bars) or PA and Lis (300 μg PA+250 μg Lis—4th bars). Bl=blood, Li=liver, He=heart, Ki=kidneys, St=stomach, In=intestines, Sp=spleen, Mu=muscle, Lu=lungs, Pa=pancreas, Fe=femur and Tu=WiDr tumor.
FIG. 5H: Biodistribution of [^99mTc]Demotensin 1 in SCID mice bearing WiDr tumors (hNTS1+) at 4 h pi. Bars represent average uptake as mean % injected dose per gram (% ID/g) of at least 4 animals with standard deviation (control at 4 h 2nd bars); three additional groups of animals received either excess NT and PA (100 μg and 300 μg PA, respectively—first bars), or PA (300 μg PA—3rd bars) or PA and Lis (300 μg PA+300 μg Lis—4th bars). Bl=blood, Li=liver, He=heart, Ki=kidneys, St=stomach, In=intestines, Sp=spleen, Mu=muscle, Lu=lungs, Pa=pancreas, Fe=femur and Tu=WiDr tumor.
In FIG. 4B the effects of such regimens on SCID mice bearing the human colon adenocarcinoma WiDr tumor (a hNTS1R^+ tumor) on enhancing in vivo tumor targeting are presented.
In FIG. 5B the effects of above regimens on SCID mice bearing WiDr tumors (hNTS1R^+) on enhancing in vivo tumor targeting are shown.

Compound: CCCC[C@H](NC=O)C(=O)N[C@@H](CC(C)C)C(=O)N[C@@H](Cc1ccccc1)C(=O)N[C@@H](CCCC)C(=O)N[C@@H](Cc1ccc(O)cc1)C(=O)N[C@@H](CCCCNC(=O)CN1CCN(CC(=O)O)CCN(CC(=O)O)CCN(CC(=O)O)CC1)C(=O)O [[111In] CTP-1, For-Nle-Leu-Phe-Nle-Tyr-Lys(DOTA)-OH, metal not drawn] (For-[Nle]LF[Nle]YK(DOTA)-OH)
- percentage of parent peptide remaining intact [1]: 2%

Compound: CCCC[C@H](NC(=O)[C@H](CO)NC(=O)[C@H](Cc1ccc(O)cc1)NC(=O)[C@H](CO)NC(=O)CN1CCN(CC(=O)O)CCN(CC(=O)O)CCN(CC(=O)O)CC1)C(=O)N[C@@H](CCC(=O)O)C(=O)N[C@@H](Cc1c[nH]cn1)C(=O)N[C@@H](Cc1ccccc1)C(=O)N[C@@H](CCCNC(=N)N)C(=O)N[C@@H](Cc1c[nH]c2ccccc12)C(=O)NCC(=O)N[C@@H](CCCCN)C(=O)N1CCC[C@H]1C(=O)N[C@H](C(N)=O)C(C)C [[111In]MSH-1, metal not drawn]
- percentage of parent peptide remaining intact [1]: 52%

Compound: CCCC[C@H](NC(=O)[C@H](CO)NC(=O)[C@H](Cc1ccc(O)cc1)NC(=O)[C@H](CO)NC(=O)CN1CCN(CC(=O)O)CCN(CC(=O)O)CCN(CC(=O)O)CC1)C(=O)N[C@@H](CCC(=O)O)C(=O)N[C@@H](Cc1cnc[nH]1)C(=O)N[C@H](Cc1ccccc1)C(=O)N[C@@H](CCCN=C(N)N)C(=O)N[C@@H](Cc1c[nH]c2ccccc12)C(=O)NCC(=O)N[C@@H](CCCCN)C(=O)N1CCC[C@H]1C(=O)N[C@H](C(N)=O)C(C)C [[111In]MSH-2, (DOTA)Ser-Tyr-Ser-Nle-Glu-His-DPhe-Arg-Trp-Gly-Lys-Pro-Val-NH2, metal not drawn]
- percentage of parent peptide remaining intact [1]: 77%

Compound: CSCC[C@H](NC(=O)[C@H](CC(C)C)NC(=O)CNC(=O)[C@H](Cc1ccccc1)NC(=O)[C@H](Cc1ccccc1)NC(=O)[C@H](CCC(N)=O)NC(=O)[C@H](CCC(N)=O)NC(=O)[C@@H]1CCCN1C(=O)[C@H](CCCCN)NC(=O)[C@@H]1CCCN1C(=O)[C@H](CCCNC(=N)N)NC(=O)CN1CCN(CC(=O)O)CCN(CC(=O)O)CCN(CC(=O)O)CC1)C(N)=O [[111In]SP-1, metal not drawn]
- percentage of parent peptide remaining intact [1]: 7%

Compound: CC(C)C[C@H](NC(=O)CNC(=O)[C@H](Cc1ccccc1)NC(=O)[C@H](Cc1ccccc1)NC(=O)[C@H](CCC(N)=O)NC(=O)[C@H](CCC(N)=O)NC(=O)[C@@H]1CCCN1C(=O)[C@H](CCCCN)NC(=O)[C@@H]1CCCN1C(=O)[C@H](CCCNC(=N)N)NC(=O)CN1CCN(CC(=O)O)CCN(CC(=O)O)CCN(CC(=O)O)CC1)C(=O)N[C@@H](CCS(C)(=O)=O)C(N)=O [[111In]SP-2, metal not drawn]
- percentage of parent peptide remaining intact [1]: 24%

Compound: CC(C)C[C@H](NC(=O)CN(C)C(=O)[C@H](Cc1ccccc1)NC(=O)[C@H](Cc1ccccc1)NC(=O)[C@H](CCC(N)=O)NC(=O)[C@H](CCC(N)=O)NC(=O)[C@@H]1CCCN1C(=O)[C@H](CCCCN)NC(=O)[C@@H]1CCCN1C(=O)[C@H](CCCNC(=N)N)NC(=O)CN1CCN(CC(=O)O)CCN(CC(=O)O)CCN(CC(=O)O)CC1)C(=O)N[C@@H](CCS(C)(=O)=O)C(N)=O [[111In]SP-3, metal not drawn]
- percentage of parent peptide remaining intact [1]: 51%

Compound: CCNC(=O)[C@H](CC(C)C)NC(=O)[C@H](Cc1c[nH]cn1)NC(=O)CNC(=O)[C@@H](NC(=O)[C@H](C)NC(=O)[C@H](Cc1c[nH]c2ccccc12)NC(=O)[C@H](CCC(N)=O)NC(=O)[C@@H](Cc1ccccc1)NC(=O)COCC(=O)Nc1ccc(CC(CNCCN)CNCCN)cc1)C(C)C [[^99mTc]Demobesin 1, metal not drawn]
- uptake in PC-3 tumor [2]: 12.73±0.93 % ID/g
- in vitro stability in plasma [3]: high in vitro stability

Compound: CCCC[C@H](NC(=O)[C@H](CC(C)C)NC(=O)[C@H](Cc1c[nH]cn1)NC(=O)CNC(=O)[C@@H](NC(=O)[C@H](C)NC(=O)[C@H](Cc1c[nH]c2ccccc12)NC(=O)[C@H](CCC(N)=O)NC(=O)[C@H](CC(N)=O)NC(=O)CNC(=O)[C@H](Cc1ccc(O)cc1)NC(=O)[C@H](CCCN=C(N)N)NC(=O)[C@H](CCC(N)=O)NC(=O)[C@@H]1CCCN1C(=O)C(CNCCN)CNCCN)C(C)C)C(N)=O [[^99mTc]Demobesin 4, metal not drawn]
- uptake in PC-3 tumor [2]: 11.26±1.81 % ID/g
- in vitro stability in plasma [3]: very high
- percentage of parent peptide remaining intact [1]: 26%

Compound: CC[C@H](C)[C@H](NC(=O)[C@H](Cc1ccc(O)cc1)NC(=O)[C@@H]1CCCN1C(=O)[C@H](CCCN=C(N)N)NC(=O)[C@H](CCCN=C(N)N)NC(=O)CNC(=O)C(CNCCN)CNCCN)C(=O)N[C@@H](CC(C)C)C(=O)O [[^99mTc]Demotensin 1, ^99mTc-N4-Gly-Arg-Arg-Pro-Tyr-Ile-Leu-OH, metal not drawn] (X1-GRRPYIL-OH)
- uptake in WiDr tumor ([4]; PA 300 μg): 4.58±0.47 % ID/g
- uptake in WiDr tumor ([4]; PA 300 μg + Lis (250 μg for Demotensin 6, 300 μg for Demotensin 1)): 7.71±1.19 % ID/g
- uptake in WiDr tumor, blockade ([4]; excess NT 100 μg blocker + 300 μg PA): 0.23±0.09 % ID/g
- uptake in WiDr tumor ([4]; non-treated controls): 1.20±0.21 % ID/g

Compound: CSCC[C@H](NC(=O)[C@H](CC(C)C)NC(=O)[C@H](Cc1c[nH]cn1)NC(=O)CNC(=O)[C@@H](NC(=O)[C@H](C)NC(=O)[C@H](Cc1c[nH]c2ccccc12)NC(=O)[C@H](Cc1c[nH]cn1)NC(=O)[C@H](CC(N)=O)NC(=O)CNC(=O)C(CNCCN)CNCCN)C(C)C)C(N)=O [[^99mTc]SAR-NC1, metal not drawn]
- uptake in PC-3 tumor [2]: 6.51±1.91 % ID/g
- percentage of parent peptide remaining intact [1]: 30%

Compound: CC(C)C[C@H](NC(=O)C[C@H](O)[C@H](CC(C)C)NC(=O)[C@H](Cc1c[nH]cn1)NC(=O)CNC(=O)[C@@H](NC(=O)[C@H](C)NC(=O)[C@H](Cc1c[nH]c2ccccc12)NC(=O)[C@H](CCC(N)=O)NC(=O)[C@@H](Cc1ccccc1)NC(=O)CCNC(=O)CCNC(=O)CN1CCN(CC(=O)O)CCN(CC(=O)O)CCN(CC(=O)O)CC1)C(C)C)C(N)=O [[^111In]JMV4168, [^111In]DOTA-βAla-βAla-DPhe-Gln-Trp-Ala-Val-Gly-His-Sta-Leu-NH2, metal not drawn]
- uptake in PC-3 tumor [2]: 10.22±2.40 % ID/g
- pancreas uptake [2]: remained very low

Compound: CCCC[C@H](NC(=O)[C@H](Cc1ccccc1)NC(=O)[C@H](Cc1c[nH]cn1)NC(=O)CCNC(=O)[C@@H](NC(=O)[C@H](C)NC(=O)[C@H](Cc1c[nH]c2ccccc12)NC(=O)[C@H](CCC(N)=O)NC(=O)[C@@H](Cc1ccc(O)cc1)NC(=O)COCCOCCNC(=O)CN1CCN(CC(=O)O)CCN(CC(=O)O)CCN(CC(=O)O)CC1)C(C)C)C(N)=O [[^111In]PanSarbesin 1, ^111In-DOTA-PEG2-DTyr-Gln-Trp-Ala-Val-βAla-His-Phe-Nle-NH2, metal not drawn] ({DOTA-AEEA}-[dY]QWAV[βAla]HF[Nle]-NH2)
- uptake in PC-3 tumor [2]: 3.75±0.73 % ID/g
- percentage of parent peptide remaining intact [1]: 13%
